The record followed here is patent publication US20220348894, “DNA MODIFYING ENZYMES AND ACTIVE FRAGMENTS AND VARIANTS THEREOF AND METHODS OF USE” (LifeEDIT Therapeutics, Inc., published 2022).

The target in one series is T1, APG08290.1 (Bacillus sp.).
T1 chain: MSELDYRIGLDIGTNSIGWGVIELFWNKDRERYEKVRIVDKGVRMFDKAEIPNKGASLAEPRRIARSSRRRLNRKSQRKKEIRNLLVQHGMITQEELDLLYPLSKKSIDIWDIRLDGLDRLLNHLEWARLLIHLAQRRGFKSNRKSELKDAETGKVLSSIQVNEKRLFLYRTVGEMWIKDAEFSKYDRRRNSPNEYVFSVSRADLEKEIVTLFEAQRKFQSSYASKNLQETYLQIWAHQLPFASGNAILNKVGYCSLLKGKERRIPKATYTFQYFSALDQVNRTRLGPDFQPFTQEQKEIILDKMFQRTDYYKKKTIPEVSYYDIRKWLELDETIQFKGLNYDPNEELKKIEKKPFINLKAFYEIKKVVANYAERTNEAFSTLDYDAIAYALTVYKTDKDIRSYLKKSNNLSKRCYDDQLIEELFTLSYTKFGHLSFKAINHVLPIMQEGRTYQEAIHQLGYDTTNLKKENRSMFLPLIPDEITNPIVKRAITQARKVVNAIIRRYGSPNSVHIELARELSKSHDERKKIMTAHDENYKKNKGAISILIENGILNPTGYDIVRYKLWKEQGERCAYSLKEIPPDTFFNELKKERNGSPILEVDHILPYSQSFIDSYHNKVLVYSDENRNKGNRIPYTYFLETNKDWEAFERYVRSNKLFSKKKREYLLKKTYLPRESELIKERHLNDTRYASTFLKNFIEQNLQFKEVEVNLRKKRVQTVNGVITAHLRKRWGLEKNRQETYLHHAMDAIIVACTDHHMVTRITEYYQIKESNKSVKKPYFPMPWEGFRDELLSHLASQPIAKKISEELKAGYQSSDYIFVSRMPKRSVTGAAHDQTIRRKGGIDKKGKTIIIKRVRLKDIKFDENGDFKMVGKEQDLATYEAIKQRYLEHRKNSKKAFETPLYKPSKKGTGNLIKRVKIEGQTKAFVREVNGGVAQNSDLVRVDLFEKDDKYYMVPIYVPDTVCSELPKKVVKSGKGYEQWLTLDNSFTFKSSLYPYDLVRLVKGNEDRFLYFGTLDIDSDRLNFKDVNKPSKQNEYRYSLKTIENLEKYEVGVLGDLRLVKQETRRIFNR
In words: cell_activity; editing rate HEK293T; PAM not stated. From the text: (§1) Through alignment with closely related homologs, a unique 8 amino acid region at positions 590-597 was identified in APG07433.1 and its close homolog APG08290.1 (described in WO 2019/236566 and set forth herein as SEQ ID NO: 60). This region, set forth as SEQ ID NO: 365 for APG07433.1 and SEQ ID NO: 367 for APG08290.1, was removed from both proteins, resulting in variant RGNs APG07433.1-del (SEQ ID NO: 366) and APG08290.1-del (SEQ ID NO: 368). These deletion variants and their corresponding wild-type RGNs were assayed for editing activity in HEK293T cells using the guide RNAs indicated in Tables 32 and 33 following methods similar to those described in Example 1.

The next series addresses T2, APG08290.1-del.
T2 chain: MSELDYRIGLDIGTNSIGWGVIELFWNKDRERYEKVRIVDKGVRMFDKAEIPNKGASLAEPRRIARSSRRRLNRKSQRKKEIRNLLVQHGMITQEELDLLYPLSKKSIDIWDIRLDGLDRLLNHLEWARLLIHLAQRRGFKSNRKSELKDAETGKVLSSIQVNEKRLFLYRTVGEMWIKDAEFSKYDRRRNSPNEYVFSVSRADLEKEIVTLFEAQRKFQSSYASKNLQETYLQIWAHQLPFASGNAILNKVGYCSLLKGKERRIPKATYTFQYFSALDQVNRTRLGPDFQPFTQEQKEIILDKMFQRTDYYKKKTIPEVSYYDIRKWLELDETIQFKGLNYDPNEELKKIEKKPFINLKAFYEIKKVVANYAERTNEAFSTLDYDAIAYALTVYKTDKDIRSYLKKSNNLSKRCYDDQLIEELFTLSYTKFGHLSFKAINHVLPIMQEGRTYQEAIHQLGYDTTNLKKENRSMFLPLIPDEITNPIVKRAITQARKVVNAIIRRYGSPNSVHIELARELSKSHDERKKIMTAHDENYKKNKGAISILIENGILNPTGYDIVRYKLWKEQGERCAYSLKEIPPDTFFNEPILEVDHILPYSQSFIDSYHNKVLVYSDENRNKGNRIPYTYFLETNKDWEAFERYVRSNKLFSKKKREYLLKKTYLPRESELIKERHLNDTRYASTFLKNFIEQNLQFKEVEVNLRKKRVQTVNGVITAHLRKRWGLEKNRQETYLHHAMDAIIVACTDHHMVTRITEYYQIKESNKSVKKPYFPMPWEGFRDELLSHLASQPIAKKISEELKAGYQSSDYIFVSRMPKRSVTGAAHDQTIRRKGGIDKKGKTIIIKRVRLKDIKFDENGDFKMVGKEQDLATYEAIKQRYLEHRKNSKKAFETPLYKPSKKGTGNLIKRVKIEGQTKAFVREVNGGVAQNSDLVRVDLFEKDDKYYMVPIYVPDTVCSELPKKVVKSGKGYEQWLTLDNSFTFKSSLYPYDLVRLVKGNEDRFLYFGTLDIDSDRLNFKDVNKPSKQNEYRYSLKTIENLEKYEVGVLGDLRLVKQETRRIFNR
The series is described as above.
From the text: as §1

The next series concerns the target T3, APG07433.1 (Bacillus sp.).
T3 chain: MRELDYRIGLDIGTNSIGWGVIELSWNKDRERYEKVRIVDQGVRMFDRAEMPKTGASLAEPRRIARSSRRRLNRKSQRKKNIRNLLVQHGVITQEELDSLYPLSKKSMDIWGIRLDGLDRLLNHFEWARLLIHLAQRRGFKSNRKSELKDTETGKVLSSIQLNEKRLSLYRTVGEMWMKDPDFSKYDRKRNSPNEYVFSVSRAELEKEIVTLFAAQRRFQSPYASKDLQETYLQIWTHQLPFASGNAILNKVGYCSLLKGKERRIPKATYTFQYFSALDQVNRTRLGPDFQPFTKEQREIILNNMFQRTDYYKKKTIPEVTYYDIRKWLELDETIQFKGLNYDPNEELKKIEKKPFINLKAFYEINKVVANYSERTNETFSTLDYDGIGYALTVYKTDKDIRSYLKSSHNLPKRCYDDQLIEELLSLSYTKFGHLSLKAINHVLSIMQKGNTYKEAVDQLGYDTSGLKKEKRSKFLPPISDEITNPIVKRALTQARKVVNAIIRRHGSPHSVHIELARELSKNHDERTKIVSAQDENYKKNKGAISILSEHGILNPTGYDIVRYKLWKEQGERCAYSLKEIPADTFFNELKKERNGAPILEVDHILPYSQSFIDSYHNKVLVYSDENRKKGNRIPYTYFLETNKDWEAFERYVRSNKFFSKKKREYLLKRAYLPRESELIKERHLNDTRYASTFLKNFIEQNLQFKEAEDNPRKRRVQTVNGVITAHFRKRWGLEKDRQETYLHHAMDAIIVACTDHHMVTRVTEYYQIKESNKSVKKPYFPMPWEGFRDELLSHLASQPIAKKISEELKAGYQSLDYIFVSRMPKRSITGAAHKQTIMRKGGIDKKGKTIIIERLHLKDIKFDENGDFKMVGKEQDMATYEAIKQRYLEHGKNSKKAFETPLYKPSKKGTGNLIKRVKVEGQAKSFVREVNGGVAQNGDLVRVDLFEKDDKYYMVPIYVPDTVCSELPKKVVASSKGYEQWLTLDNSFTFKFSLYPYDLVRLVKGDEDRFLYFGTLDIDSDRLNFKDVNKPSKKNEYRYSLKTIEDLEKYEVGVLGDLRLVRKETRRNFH
In words: cell_activity; editing rate HEK293T; PAM 3' of target.
From the text: as §1

Series [1] has as its target T4, APG07433.1-del (residues 590-597 deleted).
T4 chain: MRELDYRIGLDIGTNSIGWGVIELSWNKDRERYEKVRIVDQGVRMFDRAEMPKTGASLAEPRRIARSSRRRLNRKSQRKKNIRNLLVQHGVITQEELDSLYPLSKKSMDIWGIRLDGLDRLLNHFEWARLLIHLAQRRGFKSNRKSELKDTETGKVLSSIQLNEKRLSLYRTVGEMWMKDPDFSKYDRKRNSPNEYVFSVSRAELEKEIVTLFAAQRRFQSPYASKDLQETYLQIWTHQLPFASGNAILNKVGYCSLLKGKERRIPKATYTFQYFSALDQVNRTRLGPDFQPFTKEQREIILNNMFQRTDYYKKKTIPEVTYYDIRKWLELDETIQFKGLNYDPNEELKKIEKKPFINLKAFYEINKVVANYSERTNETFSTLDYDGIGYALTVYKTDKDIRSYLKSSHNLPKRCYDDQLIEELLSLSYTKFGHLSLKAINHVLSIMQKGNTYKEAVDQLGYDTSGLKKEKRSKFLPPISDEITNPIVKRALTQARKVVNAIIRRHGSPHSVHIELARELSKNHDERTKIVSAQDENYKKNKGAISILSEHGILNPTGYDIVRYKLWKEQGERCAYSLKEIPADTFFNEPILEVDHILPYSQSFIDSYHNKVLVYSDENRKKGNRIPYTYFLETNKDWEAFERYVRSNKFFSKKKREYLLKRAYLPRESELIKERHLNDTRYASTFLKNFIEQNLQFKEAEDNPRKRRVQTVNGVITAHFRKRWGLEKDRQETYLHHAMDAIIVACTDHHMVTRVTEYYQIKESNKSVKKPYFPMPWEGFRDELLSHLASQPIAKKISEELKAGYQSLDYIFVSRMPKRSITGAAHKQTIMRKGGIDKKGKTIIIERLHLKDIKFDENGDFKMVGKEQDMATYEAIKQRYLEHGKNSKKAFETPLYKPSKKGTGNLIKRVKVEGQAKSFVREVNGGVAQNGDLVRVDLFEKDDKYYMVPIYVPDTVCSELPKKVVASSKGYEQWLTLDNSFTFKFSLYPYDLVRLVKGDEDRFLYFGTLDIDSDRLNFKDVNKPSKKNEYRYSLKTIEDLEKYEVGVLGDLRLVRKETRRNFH
The description is as above.
From the text: as §1

B1: SGN000929 sgRNA ; SGN000929 target (ssRNA ; dsDNA)
RNA: AUCUGGAGGGAACUUACAGCAUAUGGUCAUAGUUCCAUGAAAGCCAAAAGUGGCUUUGAUGUUUCUAUGAUAAGGGUUUCGGCCCGUGGCGUCGGGGAUCGCCUGCCCAUUCCGAUGGGCUUCUCCCCAUUUAUU
DNA 1: ATCTGGAGGGAACTTACAGCATATG
DNA 2: CATATGCTGTAAGTTCCCTCCAGAT
Take B1: the activity was 1.83% with APG08290.1 and 0.61% with APG08290.1-del.

B2: SGN000139 sgRNA (Table 32) ; SGN000139 target (Table 32) (ssRNA ; dsDNA)
RNA: AGGUUUUAAUGGCCCAGCCUGUCAUAGUUCCAUUAAAGCCAAAAGUGGCUUUGAUGUUUCUAUGAUAAGGGUUUCGACCCGUGGCGUCGGGGAUCGCCUGCCCAUUGAAAUGGGCUUCUCCCCAUUUAUU
DNA 1: AGGTTTTAATGGCCCAGCCT
DNA 2: AGGCTGGGCCATTAAAACCT
Regarding B2, the activity with APG07433.1 came to 11.1%.

B3: SGN000186 sgRNA (Table 32) ; SGN000186 target (Table 32) (ssRNA ; dsDNA)
RNA: GGACAGUGCGCAUCUCCCUGGUCAUAGUUCCAUUAAAGCCAAAAGUGGCUUUGAUGUUUCUAUGAUAAGGGUUUCGACCCGUGGCGUCGGGGAUCGCCUGCCCAUUGAAAUGGGCUUCUCCCCAUUUAUU
DNA 1: GGACAGTGCGCATCTCCCTG
DNA 2: CAGGGAGATGCGCACTGTCC
On to B3, for which the activity in series [1] turned out to be 15.2%.

B4: SGN000169 sgRNA ; SGN000169 target (ssRNA ; dsDNA)
RNA: CACAUCUCGAGCAAGACGUUGUCAUAGUUCCAUUAAAGCCAAAAGUGGCUUUGAUGUUUCUAUGAUAAGGGUUUCGACCCGUGGCGUCGGGGAUCGCCUGCCCAUUGAAAUGGGCUUCUCCCCAUUUAUU
DNA 1: CACATCTCGAGCAAGACGTT
DNA 2: AACGTCTTGCTCGAGATGTG
Turning to B4, the activity with APG07433.1 worked out at 13.4%; in series [1], 15.5%.

B5: SGN000930 sgRNA (Table 33) ; SGN000930 target (Table 33) (ssRNA ; dsDNA)
RNA: GAACAACUCAAAUGGAAAUGAAUAUGUCAUAGUUCCAUGAAAGCCAAAAGUGGCUUUGAUGUUUCUAUGAUAAGGGUUUCGGCCCGUGGCGUCGGGGAUCGCCUGCCCAUUCCGAUGGGCUUCUCCCCAUUUAUU
DNA 1: GAACAACTCAAATGGAAATGAATAT
DNA 2: ATATTCATTTCCATTTGAGTTGTTC
For B5, the activity with APG08290.1 worked out at 9.93%; in the series with APG08290.1-del it was 6.47%.
